# Measurements taken from PMC6211770, “Structure-guided disruption of the pseudopilus tip complex inhibits the Type II secretion in Pseudomonas aeruginosa” (PLoS Pathogens, 2018).
# B1: XcpV (28–129), soluble form (domain or fragment)
# chain: SASARSLQNASRLEDKTLAMWIADNRLNELQLEQTPPSSGRNQGELEFAGRRWEWRTQVDSTAEQDMRRVIVWVAAKPLGRERGSIEERAAARLVGFLGSQP
# notes: minor pseudopilin XcpV (GspI) of Pseudomonas aeruginosa, soluble form, residues 28-129; The XcpVWX complex was digested in situ with chymotrypsin before crystallisation; the chains in PDB 5VTM may be shorter; also called XcpV^(GspI); GspI; source: E. coli BL21 (DE3), purified (Ni2+-NTA, TEV digestion, Superdex 75); not shown: thioredoxin (Trx), N-terminal, cleaved
# Target: T1, XcpX (29–313), soluble form (P. aeruginosa, UniProt Q00518 29-313)
# T1 construct: minor pseudopilin XcpX (GspK) of Pseudomonas aeruginosa, soluble form, residues 29-313; buffers with XcpX held 1 mM CaCl2; The XcpVWX complex was digested in situ with chymotrypsin before crystallisation; also called XcpX^(GspK); GspK; source: E. coli BL21 (DE3), purified (Ni2+-NTA, TEV digestion, Superdex 75); not shown: thioredoxin (Trx), N-terminal, cleaved
# T1 sequence: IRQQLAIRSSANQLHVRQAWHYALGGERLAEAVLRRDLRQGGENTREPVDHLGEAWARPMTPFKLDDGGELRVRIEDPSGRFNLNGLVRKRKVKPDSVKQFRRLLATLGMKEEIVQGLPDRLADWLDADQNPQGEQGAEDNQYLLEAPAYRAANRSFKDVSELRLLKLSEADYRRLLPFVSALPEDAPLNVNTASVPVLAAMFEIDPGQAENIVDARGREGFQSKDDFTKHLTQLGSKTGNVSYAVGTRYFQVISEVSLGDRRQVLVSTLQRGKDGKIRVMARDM
# Assay: SAXS with inline SEC; XcpUVWX complex at 6.15 mg/ml in 25 mM HEPES pH 7.0, 150 mM NaCl, 5% glycerol, 2 mM DTT
# Conditions: both partners purified
binder,measurement,value
B1,binding result,binds
